T1: IPO5 (Homo sapiens), O00410
T1 chain: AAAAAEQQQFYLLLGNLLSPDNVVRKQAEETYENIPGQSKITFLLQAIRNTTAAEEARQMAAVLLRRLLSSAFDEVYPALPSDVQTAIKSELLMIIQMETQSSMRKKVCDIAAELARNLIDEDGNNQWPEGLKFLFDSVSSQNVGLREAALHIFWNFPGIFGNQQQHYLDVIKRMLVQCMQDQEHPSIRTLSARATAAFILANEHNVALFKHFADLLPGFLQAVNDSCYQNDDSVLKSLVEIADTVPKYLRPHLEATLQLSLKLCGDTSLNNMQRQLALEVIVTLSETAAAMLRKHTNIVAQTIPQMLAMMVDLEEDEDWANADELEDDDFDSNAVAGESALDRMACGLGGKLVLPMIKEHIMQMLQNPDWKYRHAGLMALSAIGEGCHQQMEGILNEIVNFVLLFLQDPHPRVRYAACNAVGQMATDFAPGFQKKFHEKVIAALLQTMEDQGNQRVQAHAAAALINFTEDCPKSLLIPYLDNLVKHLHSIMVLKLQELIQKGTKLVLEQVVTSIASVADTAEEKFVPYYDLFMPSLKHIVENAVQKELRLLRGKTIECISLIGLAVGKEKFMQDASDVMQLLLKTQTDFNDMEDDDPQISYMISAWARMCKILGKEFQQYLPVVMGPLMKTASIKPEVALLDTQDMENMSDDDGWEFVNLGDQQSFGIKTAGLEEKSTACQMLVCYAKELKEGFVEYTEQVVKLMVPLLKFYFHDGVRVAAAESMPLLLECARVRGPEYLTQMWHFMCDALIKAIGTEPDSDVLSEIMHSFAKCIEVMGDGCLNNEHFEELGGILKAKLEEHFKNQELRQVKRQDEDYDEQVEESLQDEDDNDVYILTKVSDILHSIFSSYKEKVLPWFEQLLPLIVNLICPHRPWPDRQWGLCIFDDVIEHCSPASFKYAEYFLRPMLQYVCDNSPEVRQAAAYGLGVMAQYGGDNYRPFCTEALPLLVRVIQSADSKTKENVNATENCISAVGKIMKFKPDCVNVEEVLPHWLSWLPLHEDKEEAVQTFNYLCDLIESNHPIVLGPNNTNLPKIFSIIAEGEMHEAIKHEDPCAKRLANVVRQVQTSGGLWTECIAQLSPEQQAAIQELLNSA

B1: recombinant IPO5 (importin β3/kap β3), O00410-1 1-1097 (natural protein)
chain: MAAAAAEQQQFYLLLGNLLSPDNVVRKQAEETYENIPGQSKITFLLQAIRNTTAAEEARQMAAVLLRRLLSSAFDEVYPALPSDVQTAIKSELLMIIQMETQSSMRKKVCDIAAELARNLIDEDGNNQWPEGLKFLFDSVSSQNVGLREAALHIFWNFPGIFGNQQQHYLDVIKRMLVQCMQDQEHPSIRTLSARATAAFILANEHNVALFKHFADLLPGFLQAVNDSCYQNDDSVLKSLVEIADTVPKYLRPHLEATLQLSLKLCGDTSLNNMQRQLALEVIVTLSETAAAMLRKHTNIVAQTIPQMLAMMVDLEEDEDWANADELEDDDFDSNAVAGESALDRMACGLGGKLVLPMIKEHIMQMLQNPDWKYRHAGLMALSAIGEGCHQQMEGILNEIVNFVLLFLQDPHPRVRYAACNAVGQMATDFAPGFQKKFHEKVIAALLQTMEDQGNQRVQAHAAAALINFTEDCPKSLLIPYLDNLVKHLHSIMVLKLQELIQKGTKLVLEQVVTSIASVADTAEEKFVPYYDLFMPSLKHIVENAVQKELRLLRGKTIECISLIGLAVGKEKFMQDASDVMQLLLKTQTDFNDMEDDDPQISYMISAWARMCKILGKEFQQYLPVVMGPLMKTASIKPEVALLDTQDMENMSDDDGWEFVNLGDQQSFGIKTAGLEEKSTACQMLVCYAKELKEGFVEYTEQVVKLMVPLLKFYFHDGVRVAAAESMPLLLECARVRGPEYLTQMWHFMCDALIKAIGTEPDSDVLSEIMHSFAKCIEVMGDGCLNNEHFEELGGILKAKLEEHFKNQELRQVKRQDEDYDEQVEESLQDEDDNDVYILTKVSDILHSIFSSYKEKVLPWFEQLLPLIVNLICPHRPWPDRQWGLCIFDDVIEHCSPASFKYAEYFLRPMLQYVCDNSPEVRQAAAYGLGVMAQYGGDNYRPFCTEALPLLVRVIQSADSKTKENVNATENCISAVGKIMKFKPDCVNVEEVLPHWLSWLPLHEDKEEAVQTFNYLCDLIESNHPIVLGPNNTNLPKIFSIIAEGEMHEAIKHEDPCAKRLANVVRQVQTSGGLWTECIAQLSPEQQAAIQELLNSA
B2: HIV-1 Rev NLS peptide NLS peptide, P04325 (peptide)
chain: TRQARRNRRRRWRERQR

Columns and labels:
[1] = target: Core NLS 4 synthetic peptide (fused to penetratin) (hepatitis C virus | not stated); assay: ELISA; plates coated with synthetic peptide (10 µg/ml, carbonate buffer pH 9.6); increasing concentrations of recombinant NTF, 2 h, room temperature; anti-HIS detection; apparent Kd; settings: remark: other sources report otherwise
[2] = target: NS5A NLS synthetic peptide (fused to penetratin) (hepatitis C virus | not stated); assay: as above; settings: remark: other sources report otherwise
[3] = target: NS3 NLS 1 synthetic peptide (fused to penetratin) (hepatitis C virus | not stated); assay: as above; settings: remark: other sources report otherwise
[4] = target: NS3 NLS 2 synthetic peptide (fused to penetratin) (hepatitis C virus | not stated); assay: as above; settings: remark: other sources report otherwise
[5] = target: T1, IPO5 (Homo sapiens), O00410; settings: modification not given

Row | Binder | Kd [1] [nM] | Kd [2] [nM] | Kd [3] [nM] | Kd [4] [nM] | Kd [5] [nM]
1 | B1 | 105 | 32.3 | 33.8 | 35.8 | –
2 | B2 | – | – | – | – | 44
